doi:10.1101/2021.05.31.445667

System: ZAP-S
Experiment: MST

SARS-CoV-2 -1PRF pseudoknot RNA (WT)
Kd: 121 nM
